Measurements: patent US20220195071A1 (TORQUE THERAPEUTICS, published 2022)

Molecular target: T1, mouse CD8 (mouse, UniProt P01731 28-247; P10300 22-213)
T1 construct: whole, on cells
Assay: flow cytometry of blood 1 hr after i.v. injection (2 µg/mouse); kappa+ IL-15+ cells

T1 sequence (P01731 28-247, chain 1 of 2): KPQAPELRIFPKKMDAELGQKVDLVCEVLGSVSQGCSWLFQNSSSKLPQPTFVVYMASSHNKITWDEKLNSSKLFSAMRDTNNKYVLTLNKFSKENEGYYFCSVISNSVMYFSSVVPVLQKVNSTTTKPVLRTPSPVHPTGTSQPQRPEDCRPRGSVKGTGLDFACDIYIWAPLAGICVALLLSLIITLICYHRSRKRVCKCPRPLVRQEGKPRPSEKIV
T1 sequence (P10300 22-213, chain 2 of 2): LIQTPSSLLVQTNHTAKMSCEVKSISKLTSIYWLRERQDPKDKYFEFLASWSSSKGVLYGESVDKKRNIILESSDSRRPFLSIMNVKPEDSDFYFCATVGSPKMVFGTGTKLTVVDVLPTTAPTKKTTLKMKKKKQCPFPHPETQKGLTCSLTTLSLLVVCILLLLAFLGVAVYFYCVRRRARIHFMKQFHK

B1: chY169Fab-M1scFv-IL15/sushi (bispecific antibody)
chain 1: EVKLQESGGGLVQPGRSLKLSCAASGFNFNDYWMGWVRQAPGKGLEWIGEINKDSSTINYTPSLKDKFTISRDNAQNTLYLQMSKLGSEDTAIYYCARARGMMVLIIPHYFDYWGQGVMVTVSSASTKGPSVFPLAPSSKSTSGGTAALGCLVKDYFPEPVTVSWNSGALTSGVHTFPAVLQSSGLYSLSSVVTVPSSSLGTQTYICNVNHKPSNTKVDKKVEPKSCGGGGSGGGGSGGGGSQVNLLQSGAALVKPGASVKLSCKASGYTFTDYYIHWVKQSHGKSLEWVAYINPDRDYTNYNEKFKSKATLTVDKSTNTAYMELSRLTSEDSATFYCTRRLYDGAYYYSWFAYWGQGTLVTVSSGGGGSGGGGSGGGGSGGGGSDIQMTQSPHSLSASLGETVSIECLASEGISNYLAWYQQKPGKSPQLLIYYGSRLQDGVPSRFSGSGSGTQYSLRITNMQPEDEGVYYCQQGYKYPYTFGAGTKLELK
chain 2: not shown
chain 3: ITCPPPMSVEHADIWVKSYSLYSRERYICNSGFKRKAGTSSLTECVLNKATNVAHWTTPSLKCIR
fold higher concentration of circulating tethered-fusion positive cells against vehicle control and chM1Fab-IL15/sushi: > 10 fold
